The values that follow come from a protein production outcome set (Wang et al. 2014).

The series can be described thus: label from the status in PepcDB records.
On to “MSLKKVVIIGGGAAGMSAASRVKRLKPEWDVKVFEATEWVSHAPCGIPYVVEGLSTPDKLMYYPPEVFIKKRGIDLHLNAEVIEVDTGYVRVRENGGEKSYEWDYLVFANGASPQVPAIEGVNLKGVFTADLPPDALAIREYMEKYKVENVVIIGGGYIGIEMAEAFAAQGKNVTMIVRGERVLRRSFDKEVTDILEEKLKKHVNLRLQEITMKIEGEERVEKVVTDAGEYKAELVILATGIKPNIELAKQLGVRIGETGAIWTNEKMQTSVENVYAAGDVAETRHVITGRRVWVPLAPAGNKMGYVAGSNIAGKELHFPGVLGTAVTKFMDVEIGKTGLTEMEALKEGYDVRTAFIKASTRPHYYPGGREIWLKGVVDNETNRLLGVQVVGSDILPRIDTAAAMLMAGFTTKDAFFTDLAYAPPFAPVWDPLIVLARVLKEGHHHHHH”, for which the protein production entry is listed as “not failed”.
“MCKPPMRLLTQTGLPRSSERQIRILEIVTGNRKGKHQPKPISKPQPNISMPKIIEAIYENGVFKPLQKVNFRPGSKVRIVIQEDKKEILRKYKGVFGKAEVEELREYEGEVMLLEHHHHHH”: the protein production result is recorded as “failed”.
The same measure for “MGHHHHHHSHELLVVGSRPELGRWEPRGAVRLRPAGTAAGDGALALQEPGLWLGEVELAAEEAAQDGAEPGRVDTFWYKFLKREPGGELSWEGNGPHHDRCCTYNENNLVDGVYCLPIGHWIEATGHTNEMKHTTDFYFNIAGHQAMHYSRILPNIWLGSCPRQVEHVTIKLKHELGITAVMNFQTEWDIVQNSSGCNRYPEPMTPDTMIKLYREEGLAYIWMPTPDMSTEGRVQMLPQAVCLLHALLEKGHIVYVHCNAGVGRSTAAVCGWLQYVMGWNLRKVQYFLMAKRPAVYI”: “failed”; for “MSKDSNKIIEQSREIGISIIMPLYNVEEVILETLESIHEQTFDSYEVLLIDDGSTDKTIEIVTEYIKDKPRFKLYTQPNGGPASARNHGLRLAIGMYICFVDSDDILPNYSLQLMYDGAISTGAKLITGATKRFNSEGEWFIPMHIQYNIAKPGMKTLLKNPELFYSIGPCAKLYHHSLIDGVFFPENIRYGEDQPFVLHALLQAKDIYTVEKVVYYYRLRDGESQSLTQSVDKDPIRILKSVFQIFDYGEEELKKNNTDYELEHHHHHH”: “failed”; for “REMGCAVTVADSNSAQLDKLAQQTGCQTISPADVVSDGFQDYTVVVTSPGWRPDSPLLVAAQSAGLEVIGDVELVYRLDRAEVFGPKRTWMVVTGTNGKTTTTAMLAEIMQHSGARAAAVGNIGVSVADAVRTQPRIDVLVAELSSFQL”: “failed”.
Consider “MSDSAIGVGYAADNPGWLIGMSETQERLQRLRAQAASLVFYAGILESATGRAFLELLDALSHQQPLAAVTAYSTWLGHLLASRQSWPQWLMHHIRSDDNPFSRQAQFAIASSLPEVWQQSACQDLQTLQQLASAPPRLLAPMVQALADLPTPPPHWLEETRDREAQWAETEDWAMLLPDLIQHYQQRGVGFFNRYWALRWQQGQLHGIEHPDPIPLSDLAGYELQKETLKRNTEFLLAGLPAQNVLLYGSCGAGKSSMVKALINAYGDRGLRLIEVGKADLRELPQILDQLRESALSFIVFVDDLSFEEDDETFKALKVVLEGGLTARPPNVVVYATSNRRHLVREYFDERPNPTEANEVHAWDSVQEKLSFSDRFGLTLTFEPADQDTYLAIVRHLASEVGLTMPLETLEFRARQWATRHNGRSGRTARQFMDWLIAEQSLPNPL”, for which the protein production result is recorded as “failed”.
The same measure for “MMDYALLSLMLLFTLLLAFILTRLKVSPVIAYLLGGLISFNYFHFDFNSSYFEILNFLALNLLAFEIGTSFDISRAKELFRRAMGIALTELILIVLISYFIGLYLLHLDLFASLFLVMASIDTSTSILYKIIGNKVDKNDRDLLVAVASVEDIEVFFLYSIAIALNGSFNVFRISFVILEVFIASLIIYAFAKYFLTGLSIFKFTSFEDESILILVPIVLVFVFEYISQVTQVPATLTMILAGIAFSSISGSEKVLRYTGPIREFSLIFFFLSVGSYLKITAGISTFVLISFIILAIKYFSFSTASWVSGTTLVKAFTNGLYMLPLSEFGIIVSLQALQQGIDIAIVYYISVVVVLVSSIIASILAVRVNVLQRVIGIVYSRSYFLRQLDSTIIWLNKTLSTNLSPILRSVLFRGFVKMFLYLILPYVLFPIINSIVKSIIDPINNLILQYLLYSGEIVIALFLLYLFLLEGSRLYSIINNEILVRIVRVRSRLFKEFWFGLTSFSSTFYTIILTIIYIIFEIIPLLYNFPIRLVFVPLLISLYFIYRYRAPPITYTRIDNKEADKIVKLSVKVIKKMRKRRSKRSIISTTKTVRREWS”: “failed”.
With “MSRRGLEREGGKPVSSDAKGLKRVDVRLKWDPSPWDRPPHHLDIIATTYAADAPHGRPVYVVQFDKRSPDGTINMSRHSRTGQGFGFVEEMTFELDRLSPSIARVIVGVAIHQDNGHKTFDDVSNTGVVVAEGYRELLTDGFERVAGATAATVAEFTRNASGAWEFREAVRGFDSDPVLFATEMGSAPRP”, the protein production entry is reported as “not failed”.
To “MSAIDCIITAAGLSSRMGQWKMMLPWEQGTILDTSIKNALQFCSRIILVTGYRGNELHERYANQSNITIIHNPDYAQGLLTSVKAAVPAVQTEHCFLTHGDMPTLTIDIFRKIWSLRNDGAILPLHNGIPGHPILVSKPCLMQAIQRPNVTNMRQALLMGDHYSVEIENAEIILDIDTPDDFITAKERYTEILEHHHHHH” belongs “not failed”; to “MTAFILVSGMFTGTHIWQDTAARLTARGAEVHTVALTGLDAPRAAAAPGVDLETHIADVLAVIDSVGAAGDRRIVLVGHDYGIHPAVGAADRRAERVDRIVHLDSGLPRDGVPALAAVPDQSLRERLAGAAGADGVLPPPAHEEWPRWGSTAGVPDAALDRLTALAAPQPLGTLLQPLRLTGAVDPVPTTGVLCTGNGTSIELVQMLVRLGDPALRPLTDPRVSFFELPTGHWPMLSLPAELTDVLLRAAAG”, “failed”.
As to “MATIEKRGSSYRARVTIYQHGKRDYLTKTFKTENEAKVWGTTLELEKAKGKAIAHQNTLFKDFYYLYVHTIKVNDVRKATFNNYLKAGLVINNLFPTAKLGKLDDVQMQKILDKYGETHSKKTVVELLKKIRTALRYAYAKGYIYNDFASLLKAHGKELPKRNKALSMSDLTKLKHYLLEHTDDEFNLMVLLEISTGLRRGEILGIKPEDVHYDGQYYCVEVRRSISPTTDDTKLKTKHSRRSVTIPKDVYDLLKTIPSKASGYLFDWFSFKQSELLKKLLKKIGIPSTTFHGLRDTHASFLFSNNIPLSYVSRRLGHDSILTTEKYYLELMPEKKHSQDANALNLLASL”, the protein production result is “failed”.
To “MKLLAITSCPNGIAHTYMAAENLQKAADRMGVQMKVETQGGIGVENELTEQEIREADAIIIAADRSVNKDRFIGKKLLAVGVQEGIRKPEELIQKAIGGDIPVYRSAVKTEASAQTEKKQNPIYRHLMNGVSFMVPFIVVGGLLIAVALTLGGEKTPKGLVIPDDSFWKTIEQIGAASFSFMIPILAGYIAYSIADKPGLVPGMIGGYIAATGSFYGSGSGAGFLGGIIAGFLAGYAALAIKKLKVPKAIQPIMPIIVIPVVSSLIVGLAFVLLIGAPVAQIFESLTVWLAGMQGSSSILLALILGAMISFDMGGPVNKVAFLFGSAMIGEGNYEIMGPIAVAICIPPIGLGIATFLGKRKFQAQEREMGKAAFTMGLFGITEGAIPFAAQDPLRVIPSIMAGSMTGSVIAMIGNVGDRVAHGGPIVAVLGAVDHVLMFFIAVIAGSLVTSLLVNVLKKEVTAAPAGISEAAAGNDIPQPNIEIEAESKKIEKPEITKLTDIIDTDLIEPHLSGDTRDDIIDEMIQKLSRKGVLHSESEFKQAIINRELEGTTAIGMNIAIPHGKSDAVKKPSVAFGIKRSGVDWRSLDGTDAKLIFMIAVPKESGGNEHLKLLQMLSRKLMDDTYRDKLLSAQTKEEAYKLLDEII” belongs “failed”; to “MCDYDEPLYLISVVAKILGVHPQTLRQYEKEGLIEPSRTDGKMRLYSQRDMDKIKTILRLTRDMGVNLAGVDIILRLKEKLDELDNLNKELQDALHKHSKNTKTPTKNLNTPTNFYELILFKK”, “failed”.
Turning to “LAYQPGKLLVRGDTPLFKIERLLGIDLDHIEAETLAGLIYETLKRVPEEEEQMEVEGLRIIIKKMKGPKIVLAKVLKLD”, the protein production result is reported as “not failed”.
As to “MKSILEQLSSMTVVVADTGDLDSIKKFQPRDATTNPSLILAAAKNPDYVKLIDKAIESSENTLPNGFSEIELIKETVDQVSVFFGKEILKIISGRVSTEVDARLSFDTEATVKKARKLINLYKNFGIEKERILIKIAATWEGIKAAEILEKEGIKCNLTLLFNFCQAVTCANANITLISPFVGRILDWHKAKTGKTSFIGAEDPGVISVTQIYKYFKEKGFKTEVMGASFRNLDEIKELAGCDLLTIAPKFLEELKREKGVLIRKLDASTKINNSIDYKFEEKDFRLSMLEDQMASEKLSEGITGFSKAIEELEELLIERLSEMKNHKLISAN”, the protein production entry is “not failed”.
The same measure for “MKKTLSVLVISSLLFGANVQAAALNAAQEKEVRALVRDTLVSNPEILEEAIMALQTKKADEQQAQFRQALASEHDALYNDAASPRIGAKDAKLVLVSFTDYNCPYCKRFDPLLEKITEQYPDVAVIIKPLPFKGESSAKASQAVLSVWKEDPKAFLALHQRLMQKKTMLDNASIEDAMKSTNTSKIKLTDDSLKTLQNNLELSRKLGIQGTPATVIGDTILPGAVDYDQLEIIVKEQLAKVKK”: “failed”; for “MMKRALTGIQASGKQHLGNYLGVMQSLIELQEQCQLFVFVADLHSITVDFQPQALKQNNFDLVRTLLAVGLDPQKACLFLQSDLLEHSMMGYLMMVQSNLGELQRMTQFKAKKAEQTRNPNGTLNIPTGLLTYPALMAGDILLYQPDIVPVGNDQKQHLELTRDLAQRIQKKFKLKLRLPQFVQNKDTNRIMDLFDPTKKMSKSSKNQNGVIYLDDPKEVVVKKIRQATTDSFNKIRFAPKTQPGVTNMLTILKALLKEPVNQSLTNQLGNDLEAYFSTKSYLDLKNALTEATVNLLVNIQRKREQISREQVFNCLQAGKNQAQATARTTLALFYDGFGLGSQNIK”: “not failed”; for “GSGKNLIMIQVEALQGFVVNKSINGKEITPNLNKWINKSLYFDNYFYQVAQGNTSDAEFMSLNSLYPAQSGAAYYTYAGNTFNSIPKDLGDKGYYTAALHGYNEGFWNRNVMYKSEKFDDFYGQTSYKNDEVVGMGLSDESFLNQSLAKMKTFKQPYFSFLITLSSHYPFNDTAGYEKYTMNKLDVGEYKDTLLGNYFEGIHYTDEQLGKFLDKLDKEGLTKNSIIVLYGDHFAIPKENINQLYSFEGIKDPTDLTWYEYQKVPMFIHFPDDEHKGVNHTYSGQMDIYPTIANLYNISNNYMFGEDILNVKDGDSTNVTFRNGSFTDGK”: “failed”.
The same measure for “QKRLRRKLHEYQKNIPPQVRAARLADDINAKLGRPLQYQNRGRIEYLITLNGPEPHEYRNSPIDYQHYIDKQLKPVADAILPFIGTDFETLSAPQMGLF”: “failed”; for “MSDHPGPGAVTPELFGVGGDWLAVTAGESGASVFRAADATRYAKCVPAADAAGLEAERDRIAWLSGQGVPGPRVLDWYAGDAGACLVTRAVPGVPADRVGADDLRTAWGAVADAVRRLHEVPVASCPFRRGLDSVVDAARDVVARGAVHPEFLPVEQRLVPPAELLARLTGELARRRDQEAADTVVCHGDLCLPNIVLHPETLEVSGFIDLGRLGAADRHADLALLLANARETWVDEERARFADAAFAERYGIAPDPERLRFYLHLDPLTWG”: “failed”.
As to “MAEHGETQADEEEEEQVWSWGAGTDGQLGTTKLQDELLPQLLSLTSLPSISMLACGGAHVIALTSGGKVFTWGRGSSGQLGHGDILNITLPKLVSFFDDSVITQAAAGWSHSGFVSDSGCIFTCGNGSFGQLGHGDTLSLSTPAKVSHFNNDSVKMVACGMRHSLVLFAGNQVCGFGSGKRGQLGFSSDRIKSVNLPCVVSGLKDVEVVRISANGDHSAAISADGQFFSWGRGFCGGPDVHAPQSLPSPLSFREVAVGWNHALLLTVDGEVFKLGSTLNKQPEKQQLQIDSSEALFEKVPDFDGVKVMQIAAGAEHSAAVTENGEVKTWGWGEHGQLGLGNTNDQTSPELVSLGSIDLRTKEIKVYCGSGFTYAVKRKQELSPTSS”, the protein production entry was “failed”.
